The values that follow are results of earlier work, collected in patent US10190113B2, “Methods and compositions for segregating target nucleic acid from mixed nucleic acid samples” (FLIR DETECTION, INC., priority 2011, dated 2019).

“And” between values parts separate entries of the source, which are not always exact repeats. Equal values may be shown once.

In the data set the test system is nucleic acid recognition or cleavage site. Particulars: mutant restriction enzyme relative to wild type; cited from earlier work.

B1: EcoRV Y72N: EcoRV restriction enzyme with mutation Y72N (protein, UniProt P04390 2-245, looked up, variant Y72N)
Type II restriction enzyme …: SLRSDLINALYDENQKYDVCGIISAEGKIYPLGSDTKVLSTIFELFSRPIINKIAEKHGYIVEEPKQQNHNPDFTLYKPSEPNKKIAIDIKTTYTNKENEKIKFTLGGYTSFIRNNTKNIVYPFDQYIAHWIIGYVYTRVATRKSSLKTYNINELNEIPKPYKGVKVFLQDKWVIAGDLAGSGNTTNIGSIHAHYKDFVEGKGIFDSEDEFLDYWRNYERTSQLRNDKYNNISEYRNWIYRGRK
Consider B1, for which the “% of WT cleavage activity” value is reported as below 0.1%.

B2: EcoRV D90N: EcoRV restriction enzyme with mutation D90N (two citations) (protein, UniProt P04390 2-245, looked up, variant D90N)
Type II restriction enzyme …: SLRSDLINALYDENQKYDVCGIISAEGKIYPLGSDTKVLSTIFELFSRPIINKIAEKHGYIVEEPKQQNHYPDFTLYKPSEPNKKIAINIKTTYTNKENEKIKFTLGGYTSFIRNNTKNIVYPFDQYIAHWIIGYVYTRVATRKSSLKTYNINELNEIPKPYKGVKVFLQDKWVIAGDLAGSGNTTNIGSIHAHYKDFVEGKGIFDSEDEFLDYWRNYERTSQLRNDKYNNISEYRNWIYRGRK
B2: the “% of WT cleavage activity” value was 0%.

B3: EcoRV D74A: EcoRV restriction enzyme with mutation D74A (protein, UniProt P04390 2-245, looked up, variant D74A)
Type II restriction enzyme …: SLRSDLINALYDENQKYDVCGIISAEGKIYPLGSDTKVLSTIFELFSRPIINKIAEKHGYIVEEPKQQNHYPAFTLYKPSEPNKKIAIDIKTTYTNKENEKIKFTLGGYTSFIRNNTKNIVYPFDQYIAHWIIGYVYTRVATRKSSLKTYNINELNEIPKPYKGVKVFLQDKWVIAGDLAGSGNTTNIGSIHAHYKDFVEGKGIFDSEDEFLDYWRNYERTSQLRNDKYNNISEYRNWIYRGRK
Take B3: the “% of WT cleavage activity” value is reported as 0%.

B4: EcoRV I91L: EcoRV restriction enzyme with mutation I91L (protein, UniProt P04390 2-245, looked up, variant I91L)
Type II restriction enzyme …: SLRSDLINALYDENQKYDVCGIISAEGKIYPLGSDTKVLSTIFELFSRPIINKIAEKHGYIVEEPKQQNHYPDFTLYKPSEPNKKIAIDLKTTYTNKENEKIKFTLGGYTSFIRNNTKNIVYPFDQYIAHWIIGYVYTRVATRKSSLKTYNINELNEIPKPYKGVKVFLQDKWVIAGDLAGSGNTTNIGSIHAHYKDFVEGKGIFDSEDEFLDYWRNYERTSQLRNDKYNNISEYRNWIYRGRK
Consider B4, for which the “% of WT cleavage activity” value is listed as below 0.1%.

B5: EcoRV D74E: EcoRV restriction enzyme with mutation D74E (protein, UniProt P04390 2-245, looked up, variant D74E)
Type II restriction enzyme …: SLRSDLINALYDENQKYDVCGIISAEGKIYPLGSDTKVLSTIFELFSRPIINKIAEKHGYIVEEPKQQNHYPEFTLYKPSEPNKKIAIDIKTTYTNKENEKIKFTLGGYTSFIRNNTKNIVYPFDQYIAHWIIGYVYTRVATRKSSLKTYNINELNEIPKPYKGVKVFLQDKWVIAGDLAGSGNTTNIGSIHAHYKDFVEGKGIFDSEDEFLDYWRNYERTSQLRNDKYNNISEYRNWIYRGRK
Take B5: the “% of WT cleavage activity” value was 0%.

B6: EcoRV P73A: EcoRV restriction enzyme with mutation P73A (two citations) (protein, UniProt P04390 2-245, looked up, variant P73A)
Type II restriction enzyme …: SLRSDLINALYDENQKYDVCGIISAEGKIYPLGSDTKVLSTIFELFSRPIINKIAEKHGYIVEEPKQQNHYADFTLYKPSEPNKKIAIDIKTTYTNKENEKIKFTLGGYTSFIRNNTKNIVYPFDQYIAHWIIGYVYTRVATRKSSLKTYNINELNEIPKPYKGVKVFLQDKWVIAGDLAGSGNTTNIGSIHAHYKDFVEGKGIFDSEDEFLDYWRNYERTSQLRNDKYNNISEYRNWIYRGRK
For B6, the “% of WT cleavage activity” value was <0.1% and 1%.

B7: EcoRV E45Q: EcoRV restriction enzyme with mutation E45Q (protein, UniProt P04390 2-245, looked up, variant E45Q)
Type II restriction enzyme …: SLRSDLINALYDENQKYDVCGIISAEGKIYPLGSDTKVLSTIFQLFSRPIINKIAEKHGYIVEEPKQQNHYPDFTLYKPSEPNKKIAIDIKTTYTNKENEKIKFTLGGYTSFIRNNTKNIVYPFDQYIAHWIIGYVYTRVATRKSSLKTYNINELNEIPKPYKGVKVFLQDKWVIAGDLAGSGNTTNIGSIHAHYKDFVEGKGIFDSEDEFLDYWRNYERTSQLRNDKYNNISEYRNWIYRGRK
Consider B7, for which the “% of WT cleavage activity” value is below 0.3%.

B8: EcoRV P73T: EcoRV restriction enzyme with mutation P73T (protein, UniProt P04390 2-245, looked up, variant P73T)
Type II restriction enzyme …: SLRSDLINALYDENQKYDVCGIISAEGKIYPLGSDTKVLSTIFELFSRPIINKIAEKHGYIVEEPKQQNHYTDFTLYKPSEPNKKIAIDIKTTYTNKENEKIKFTLGGYTSFIRNNTKNIVYPFDQYIAHWIIGYVYTRVATRKSSLKTYNINELNEIPKPYKGVKVFLQDKWVIAGDLAGSGNTTNIGSIHAHYKDFVEGKGIFDSEDEFLDYWRNYERTSQLRNDKYNNISEYRNWIYRGRK
For B8, the “% of WT cleavage activity” value is given as 0%.

B9: EcoRV E45A: EcoRV restriction enzyme with mutation E45A (protein, UniProt P04390 2-245, looked up, variant E45A)
Type II restriction enzyme …: SLRSDLINALYDENQKYDVCGIISAEGKIYPLGSDTKVLSTIFALFSRPIINKIAEKHGYIVEEPKQQNHYPDFTLYKPSEPNKKIAIDIKTTYTNKENEKIKFTLGGYTSFIRNNTKNIVYPFDQYIAHWIIGYVYTRVATRKSSLKTYNINELNEIPKPYKGVKVFLQDKWVIAGDLAGSGNTTNIGSIHAHYKDFVEGKGIFDSEDEFLDYWRNYERTSQLRNDKYNNISEYRNWIYRGRK
Regarding B9, the “% of WT cleavage activity” value is given as below 0.1%.

B10: EcoRV K92R: EcoRV restriction enzyme with mutation K92R (protein, UniProt P04390 2-245, looked up, variant K92R)
Type II restriction enzyme …: SLRSDLINALYDENQKYDVCGIISAEGKIYPLGSDTKVLSTIFELFSRPIINKIAEKHGYIVEEPKQQNHYPDFTLYKPSEPNKKIAIDIRTTYTNKENEKIKFTLGGYTSFIRNNTKNIVYPFDQYIAHWIIGYVYTRVATRKSSLKTYNINELNEIPKPYKGVKVFLQDKWVIAGDLAGSGNTTNIGSIHAHYKDFVEGKGIFDSEDEFLDYWRNYERTSQLRNDKYNNISEYRNWIYRGRK
With B10, the “% of WT cleavage activity” value was 0%.

B11: EcoRV E45D: EcoRV restriction enzyme with mutation E45D (protein, UniProt P04390 2-245, looked up, variant E45D)
Type II restriction enzyme …: SLRSDLINALYDENQKYDVCGIISAEGKIYPLGSDTKVLSTIFDLFSRPIINKIAEKHGYIVEEPKQQNHYPDFTLYKPSEPNKKIAIDIKTTYTNKENEKIKFTLGGYTSFIRNNTKNIVYPFDQYIAHWIIGYVYTRVATRKSSLKTYNINELNEIPKPYKGVKVFLQDKWVIAGDLAGSGNTTNIGSIHAHYKDFVEGKGIFDSEDEFLDYWRNYERTSQLRNDKYNNISEYRNWIYRGRK
On to B11, for which the “% of WT cleavage activity” value is reported as below 0.3%.

B12: BamHI T153I: BamHI restriction enzyme with mutation T153I (listed twice) (protein, UniProt P23940 1-213, looked up, variant T153I)
Type II restriction enzyme …: MEVEKEFITDEAKELLSKDKLIQQAYNEVKTSICSPIWPATSKTFTINNTEKNCNGVVPIKELCYTLLEDTYNWYREKPLDILKLEKKKGGPIDVYKEFIENSELKRVGMEFETGNISSAHRSMNKLLLGLKHGEIDLAIILMPIKQLAYYLIDRVTNFEELEPYFELTEGQPFIFIGFNAEAYNSNVPLIPKGSDGMSKRSIKKWKDKVENK
For the molecule B12, the “% of WT cleavage activity” value is 0.1% and 1%.
